The results in this text go back to US20020127221A1.

No end group written: not given here. Some results are limits rather than exact numbers.

In assay [1] the target is CRF-R1. Put plainly: displacement of 125I-Sauvagine, membranes of CHO cells expressing CRFR1, filtration assay.
For assay [2], the target named is CRF-R2β. Put plainly: displacement of 125I-Sauvagine, membranes of CHO cells expressing CRFR2β, filtration assay.
Assay [3] deals with CRF-R1. Put plainly: cell-based or functional assay.
Assay [4] concerns the target CRF-R2β. Put plainly: cell-based or functional assay.
Assay [5] addresses CRF-R2β. The assay is described as follows: radioreceptor competition vs 125I-[Tyr0,Glu1,Nle17]-sauvagine, CHO cell membranes.
Assay [6] addresses CRF-R1. Put plainly: assay not named in the summary; presumably 125I-sauvagine competition.
Assay [7] deals with CRF-R1. The assay is described as follows: radioreceptor competition vs labeled sauvagine, CHO cell membranes; reference urocortin.
The target in assay [8] is CRF-R1. Put plainly: radioreceptor competition vs 125I-[Tyr0,Glu1,Nle17]-sauvagine, CHO cell membranes.

CRF-R1, sequence (P34998 24-415): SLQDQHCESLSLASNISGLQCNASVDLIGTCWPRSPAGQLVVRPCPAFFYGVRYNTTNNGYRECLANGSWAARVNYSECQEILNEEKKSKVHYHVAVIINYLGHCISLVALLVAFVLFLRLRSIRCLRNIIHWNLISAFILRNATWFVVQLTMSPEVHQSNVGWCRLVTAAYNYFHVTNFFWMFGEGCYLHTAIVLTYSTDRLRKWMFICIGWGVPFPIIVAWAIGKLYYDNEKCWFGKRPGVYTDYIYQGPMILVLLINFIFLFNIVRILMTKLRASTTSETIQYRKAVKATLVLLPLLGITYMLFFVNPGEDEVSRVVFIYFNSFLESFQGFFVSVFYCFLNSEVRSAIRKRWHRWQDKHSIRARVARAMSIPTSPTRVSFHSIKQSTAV

In the case of “urocortin (Ucn), species not stated (from UniProt P55090 81-120) (peptide)”, the inhibition constant (Ki) in the assay with CRF-R1 [1] stood at 0.13 nM; in the assay with CRF-R2β [2], 0.15 nM.
With DDPPLSIDLTFHLLRTLLELARTQSQRERAEQNRIIFDSV (peptide, UniProt P55090 81-120, looked up) [Urocortin (rat)], the figures for the Avg. EC50 (nM) (cAMP) with CRF-R1 [3] and with CRF-R2β [4] were 0.29 nM and 0.17 nM, respectively. In addition, the inhibitory constant (Ki) in the assay with CRF-R2β [5] came out at 0.62 nM.
With IVLSLDVPIGLLQILLEQARARAAREQATTNARILARVGHC-NH2 [human urocortin-related peptide], the Ki in the assay with CRF-R1 [1] is 78 nM; in the assay with CRF-R1 [6] it was 70 nM; with CRF-R2β [2] it was 0.23 nM; in the assay with CRF-R2β [5] it was 0.5 nM. Besides, the Avg. EC50 (nM) (cAMP) in the assay with CRF-R1 [3] was above 100 nM; with CRF-R2β [4], 0.42 nM.
VILSLDVPIGLLRILLEQARYKAARNQAATNAQILAHV-NH2 [Urocortin II (mouse)]: the fold less effective than urocortin at competing for binding of labeled sauvagine with CRF-R1 [7] was above 1000 fold. Moreover, the figures for the Avg. EC50 (nM) (cAMP) with CRF-R1 [3] and with CRF-R2β [4] were above 100 nM and 0.14 nM, respectively. This molecule also showed an inhibitory constant (Ki) with CRF-R2β [5] of 0.66 nM.
As for QGPPISIDLSLELLRKMIEIEKQEKEKQQAANNRLLLDTI (peptide, UniProt P01144 1-40, looked up, ends and bridges not checked) [Sauvagine (frog)], the inhibition constant (Ki) in the assay with CRF-R1 [8] is 0.94 nM; with CRF-R2β [5], 1.7 nM.

Usually Ki stands for a dissociation constant, usually derived from enzyme kinetics or from competition with a known ligand. Higher therefore signals lower affinity.
